Data published in PMC11480844.

B1: H2-Kb / E8 (parent)
chain 1: GDSVTQTEGLVTVTEGLPVKLNCTYQTTYLTIAFFWYVQYLNEAPQVLLKSSTDNKRTEHQGFHATLHKSSSSFHLQKSSAQLSDSALYYCALNTNTGKLTFGDGTVLTVKP
chain 2: EAAVTQSPRNKVAVTGGKVTLSCNQTNNHNNMYWYRQDTGHGLRLIHYSYGAGSTEKGDIPDGYKASRPSQENFSLILELATPSQTSVYFCASGDWGAGTGQLYFGEGSKLTVL
chain 3: not shown
chain 4: IQKTPQIQVYSRHPPENGKPNILNCYVTQFHPPHIEIQMLKNGKKIPKVEMSDMSFSKDWSFYILAHTEFTPTETDTYACRVKHDSMAEPKTVYWDRDM
chain 5: SIINFEKL
B2: H2-Kb / B13 (parent)
chain 1: AQKVTQTQTSISVMEKTTVTMDCVYETQDSSYFLFWYKQTASGEIVFLIRQDSYKKENATVGHYSLNFQKPKSSIGLIITATQIEDSAVYFCAMREGTGGYKVVFGSGTRLLVSP
chain 2: EAAVTQSPRNKVTVTGGNVTLSCRQTNSHNYMYWYRQDTGHGLRLIHYSYGAGNLQIGDVPDGYKATRTTQEDFFLLLELASPSQTSLYFCASSDGTGHEQYFGPGTRLTVL
chain 3: not shown
chain 4: B1 chain 4
chain 5: SIINFEKL
B3: H2-Kb / H5 (parent)
chain 1: GEQVEQRPPHLSVREGDSAVIICTYTDPNSYYFFWYKQEPGAGLQLLMKVFSSTEINEGQGFTVLLNKKDKQLSLNLTAAHPGDSAVYFCAVSNYGSSGNKLIFGIGTLLSVKP
chain 2: EAAVTQSPRNKVAVTGGKVTLSCNQTNNHNNMYWYRQDTGHGLRLIHYSYGAGSTEKGDIPDGYKASRPSQENFSLILELATPSQTSVYFCASGDRERDTQYFGPGTRLLVL
chain 3: not shown
chain 4: B1 chain 4
chain 5: SIINFEKL
B4: H2-Kb / E9 (parent)
chain 1: QQKVQQSPESLTVSEGAMASLNCTFSDRSSDNFRWYRQHSGKGLEVLVSIFSDGEKEEGSFTAHLNRASLHVFLHIREPQPSDSALYLCAVSRSSGSWQLIFGSGTQLTVMP
chain 2: NSGVVQSPRYIIKGKGERSILKCIPISGHLSVAWYQQTQGQELKFFIQHYDKMERDKGNLPSRFSVQQFDDYHSEMNMSALELEDSAVYFCASSRDSNNQAPLFGEGTRLSVL
chain 3: not shown
chain 4: B1 chain 4
chain 5: SIINFEKL

Variants of: B1
Assay: % of reporter cells activated (NFAT-GFP), raw
Details: with E8; scale: % of reporter cells activated
Further: test concentration or dose not given here.

Ratio to parent: each site, then its substitutions
chain 5 E6: T 0.0257 | A 0.159 | H 0.0243 | Q 0.115 | V 0 | W 0.0496 | K 0.03 | P 0.169 | Y 0.00591 | S 0.0471 | G 0.193 | F 0.018 | I 0.0166 | C 0.0282 | M 0.0317 | N 0.03 | D 0.546 | L 0.0214 | R 0.0462
chain 5 F5: G 1.93 | A 1.63 | D 0.0471 | I 0.735 | C 1.41 | E 0.539 | K 0.557 | H 1.61 | L 0.68

Variants of: B2
Assay: % of reporter cells activated (NFAT-GFP), raw
Details: with B13; scale: % of reporter cells activated

Ratio to parent: each site, then its substitutions
chain 5 S1: T 0.544 | C 0.0621 | G 0.236 | F 0.0232 | D 0.113 | N 0.0976 | A 0.835 | V 0.857 | H 0.0963 | Q 0.392 | P 0.139 | I 0.381 | L 0.112 | Y 0.11 | M 1.15 | E 0.113 | W 1.35 | R 6.17 | K 0.64
chain 5 I2: K 1.84 | H 1 | S 0.848 | V 1.98 | R 1.49 | L 1.48 | T 1.09 | Q 0.243 | Y 2.07 | A 1.04 | C 1.49 | G 0.284 | E 0.75 | N 0.347 | W 2.33 | P 0.285 | F 1.01 | D 0.523 | M 0.411
chain 5 L8: C 3.32 | F 0.189 | W 0.423 | I 0.992 | T 0.331 | P 2.29 | H 0.954 | S 2.06 | N 3 | G 1.21 | Y 0.812 | M 0.471 | D 2.32 | A 0.227 | K 0.45 | Q 0.247 | R 1.98 | E 2.13 | V 0.393
chain 5 E6: K 0.611 | Y 0.0507 | N 0.0224 | P 0.101 | T 0.0399 | I 0.0222 | F 0.0355 | Q 0.0298 | C 0.0215 | L 0.0292 | V 0.038 | S 0.0411 | D 0.0608 | W 0.0431 | H 0.0361 | G 0.0583 | R 0.024 | M 0.0342 | A 0.0525
chain 5 N4: S 0.0507 | G 0.101 | A 0.052 | E 0.156 | F 0.393 | Y 0.0196 | L 0.0811 | D 0.0238 | P 0.0596 | Q 0.0444 | I 0.179 | H 0.038 | M 0.0596 | V 0.0342 | T 0.0378 | R 0.104 | C 0.0444 | W 0.025 | K 0.0279
chain 5 K7: T 1.03 | W 1.27 | C 1.38 | A 0.722 | M 4.28 | F 1.21 | N 1.14 | P 0.0545 | I 1.32 | G 0.471 | L 3.14 | V 2.07 | D 0.108 | Y 0.195 | H 0.431 | Q 0.887 | R 0.987 | S 1.02 | E 0.113
chain 5 F5: W 0.0204 | P 0.144 | V 0.331 | Q 0.0482 | M 0.316 | E 0.0684 | L 0.117 | T 0.195 | A 0.131 | N 0.0634 | I 0.0887 | C 0.132 | K 0.15 | Y 0.712 | G 0.0418 | D 0.179 | R 0.0811 | H 0.366 | S 0.0431
chain 5 I3: Y 0.117 | P 5.54 | Q 4.85 | H 1.64 | F 0.122 | C 5.34 | W 0.293 | M 5.23 | T 1.56 | V 2.29 | N 1.58 | E 4.51 | K 0.422 | S 1.98 | D 0.0646 | G 1.07 | L 2.17 | R 1.96 | A 4.66

Variants of: B3
Assay: % of reporter cells activated (NFAT-GFP), raw
Details: with H5; scale: % of reporter cells activated

Ratio to parent, by site and new letter:
chain 5 N4: T 0.352 | R 0.454 | L 0.469 | E 0.367 | D 0.316 | Y 1.1 | V 0.332 | I 0.347 | M 0.352 | A 0.301 | W 0.5 | G 0.362 | F 1.27 | K 0.592 | C 0.49 | S 0.332 | P 0.255 | Q 0.245 | H 8.69
chain 5 L8: F 0.423 | H 0.985 | M 0.689 | G 0.515 | Q 0.842 | K 0.837 | W 0.255 | T 0.719 | N 0.281 | D 0.352 | Y 0.755 | R 0.485 | V 0.531 | I 0.786 | S 0.464 | A 0.709 | E 0.49 | P 0.332 | C 0.781
chain 5 I3: A 0.306 | K 0.423 | Y 0.321 | T 0.352 | E 0.357 | N 0.367 | H 0.372 | W 0.286 | G 0.347 | F 0.276 | Q 0.337 | M 0.327 | L 0.74 | S 0.276 | D 0.265 | R 0.403 | C 0.5 | V 0.985 | P 0.49
chain 5 K7: D 0.597 | Q 0.592 | P 0.551 | W 0.352 | L 0.638 | V 0.75 | N 0.893 | F 0.306 | G 0.811 | M 0.362 | S 0.76 | R 1.01 | T 1.8 | H 0.806 | E 4.34 | Y 0.383 | A 0.648 | I 1.12 | C 0.77
chain 5 S1: A 0.474 | K 0.602 | W 0.332 | Y 0.27 | E 0.281 | G 0.25 | M 2.39 | C 0.316 | T 0.587 | P 0.383 | H 0.474 | Q 0.469 | R 0.852 | N 0.352 | I 0.454 | V 0.388 | L 0.398 | D 0.281 | F 0.638
chain 5 E6: A 0.454 | K 0.332 | S 0.444 | D 0.235 | N 0.301 | T 0.459 | V 0.342 | Y 0.332 | P 0.301 | G 0.306 | W 0.25 | Q 0.357 | L 0.265 | H 0.643 | M 0.311 | R 0.362 | I 0.408 | C 0.342 | F 0.296
chain 5 F5: W 0.515 | V 0.617 | D 0.439 | R 0.311 | G 0.316 | M 1.13 | E 0.352 | T 0.367 | C 0.816 | S 0.531 | L 0.663 | A 0.923 | Q 0.638 | K 0.362 | I 2.01 | P 0.459 | Y 0.765 | N 0.48 | H 0.719
chain 5 I2: C 0.74 | Y 0.352 | A 0.663 | P 0.327 | L 0.607 | H 0.332 | F 0.653 | G 0.505 | M 0.684 | S 0.75 | E 0.408 | W 0.378 | T 0.526 | K 0.388 | D 0.505 | Q 0.454 | R 0.24 | N 0.362 | V 1.03

Variants of: B4
Assay: % of reporter cells activated (NFAT-GFP), raw
Details: with E9; scale: % of reporter cells activated

Ratio to parent of substitutions, site by site:
chain 5 S1: Y 1.2 | W 1.2
